Assay results published in US20230257477A1.

Target: CD99 antigen (Origene, Sku #TP304058) (UniProt P14209)
Test: ELISA on coated CD99 antigen

Sequence of CD99 antigen (Origene, Sku #TP304058) (P14209 23-185 limits assumed): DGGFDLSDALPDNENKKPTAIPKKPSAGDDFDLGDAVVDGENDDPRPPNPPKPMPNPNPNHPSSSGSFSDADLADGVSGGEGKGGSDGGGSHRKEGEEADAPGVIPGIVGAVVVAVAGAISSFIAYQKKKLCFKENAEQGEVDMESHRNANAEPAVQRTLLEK

- ELISA absorbance: 0.658
B1: 1H3H9 (antibody, V domains shown)
VH: EVQLQQSGAELVKPGASVKLSCTASGFDIKDTYIHWVKQRPEQGLEWIGRIDPANGDTRYDPEFQGKASLTADTSSNTAYLQFSNLTSEDTAVYYCARRGGLSWGQGTTLTVSS
VL: DIQMTQSPASLSASVGETVTITCRASGNIHNYLAWYQQKQGKSPQLLVYNAKTLADGVPSRFSGSGSGTQYSLKINSLQPEDFGSYYCQHFWSTPWTFGGGTKLEIK
